Reference: paper doi:10.1101/2020.12.31.425019 (bioRxiv, 2020)

Legend:
negative-stain EM = biological target: the molecule itself; test: negative-stain EM
cross-linking = biological target: the molecule itself; test: cross-linking

B1: fPanx1ΔC (frog Pannexin 1 truncated at Lys357, residues 1-357) (domain or fragment, UniProt B3DLA5 1-357, looked up)
chain: MAIAHIATEYVFSDFLLKDPPESKYKGLRLELAVDKLVSCIAVGLPLLLISLAFAQEITLGSQISCFAPTSFSWRQAAYVDSFCWAAVQQKHLSQSDSGNVPLWLHKFFPYILLLVAVLLYLPNLFWRFTAAPHLSSDLKFVMEELDKCYNRDIKDIKAANNLNSSDKRDGLNSPVVSENLQQSLWEIPLSHYKYPIVEQYLKTKNNSYGLIIKYLICRVVTLIIVFTACIYLGYYISLFSLTDEFTCNIRTGILRNDTALPPLVQCKLIAVGVFRLLSYINLIIYVLIMPFIIYAMLVPFRKTANVLKVYEVLPTFSVQQAPSKTYDDHSLFLLFLEENVSELKSYKFLKVLENIK
modifications: glycosylated in insect cells (upper band sensitive to PNGaseF; site not stated)
**Q.** With B1 as the protein, how does the “stoichiometry N” value (negative-stain EM) read?
**A.** 7

**Q.** What about the “stoichiometry N” value (cross-linking) of the same protein?
**A.** ~7
